The labels stand for the following.
B1: YS-1-58 (peptide)
chain: FGFWWKTFG
modifications: not fully specified; PTR 3219 core; fluorescein thiourea, Gly linker; cyclic GlyS2* to GlyS2*; D-Phe1, D-Trp; C-terminal amide
B2: YS-1-76 (peptide)
chain: FGFWWKTFG
modifications: not fully specified; PTR 3219 core; fluorescein amide, aminohexanoic linker; cyclic GlyS2* to GlyS2*; D-Phe1, D-Trp; C-terminal amide
B3: YS-1-52 (peptide)
chain: GFWWKTFG
modifications: not fully specified; PTR 3213 core; fluorescein amide, aminopentanoic linker; cyclic GlyS2* to GlyS2*; D-Trp; C-terminal amide
B4: YS-1-29 (peptide)
chain: XFWWKTFG
modifications: not fully specified; PTR 3173-NH2 core; X = GABA; fluorescein amide, aminopentanoic linker; backbone cyclic; D-Trp; C-terminal amide
B5: YS-1-44 (peptide)
chain: GFWWKTFG
modifications: not fully specified; PTR 3213 core; fluorescein amide, betaAla linker; cyclic GlyS2* to GlyS2*; D-Trp; C-terminal amide
B6: YS-1-54 (peptide)
chain: GFWWKTFG
modifications: not fully specified; PTR 3213 core; fluorescein thiourea, no linker; cyclic GlyS2* to GlyS2*; D-Trp; C-terminal amide
B7: YS-1-68 (peptide)
chain: FGFWWKTFG
modifications: not fully specified; PTR 3219 core; 5- and 6-carboxyfluorescein-GABA conjugate; cyclic GlyS2* to GlyS2*; D-Phe1, D-Trp; C-terminal amide
B8: PTR 1017A-01 (peptide)
chain: KXFWWKTFG
modifications: not fully specified; 5- and 6-carboxyfluorescein-Lys; X = GABA; backbone cyclic (GABA* to GlyC3*); D-Trp; C-terminal amide
B9: YS-1-62 (peptide)
chain: FGFWWKTFG
modifications: not fully specified; PTR 3219 core; 5-(aminothionyl)fluorescein-betaAla conjugate; cyclic GlyS2* to GlyS2*; D-Phe1, D-Trp; C-terminal amide
B10: YS-1-70 (peptide)
chain: FGFWWKTFG
modifications: not fully specified; PTR 3219 core; 5-(aminothionyl)fluorescein-aminopentanoyl conjugate; cyclic GlyS2* to GlyS2*; D-Phe1, D-Trp; C-terminal amide
B11: YS-1-86 (peptide)
chain: FCFWWKTFG
modifications: not fully specified; PTR 3207 core; 5-(aminothionyl)fluorescein-GABA conjugate; cyclic Cys* to GlyS2*; D-Phe1, D-Trp; C-terminal amide
B12: YS-1-48 (peptide)
chain: GFWWKTFG
modifications: not fully specified; PTR 3213 core; 5- and 6-carboxyfluorescein-GABA conjugate; cyclic GlyS2* to GlyS2*; D-Trp; C-terminal amide
B13: PTR 1007A-01 (peptide)
chain: XFWWKTFG
modifications: X = Dab; 5- and 6-carboxyfluorescein conjugate; backbone cyclic (Dab* to GlyC3*); D-Trp4; C-terminal GlyC3, amide
B14: YS-1-64 (peptide)
chain: FGFWWKTFG
modifications: not fully specified; PTR 3219 core; 5- and 6-carboxyfluorescein-betaAla conjugate; cyclic GlyS2* to GlyS2*; D-Phe1, D-Trp; C-terminal amide

The first assay deals with T1, human SST-R2 (human, UniProt P30874). The assay can be described thus: competition, SRIF-14 displacement.
T1 sequence (P30874 whole entry): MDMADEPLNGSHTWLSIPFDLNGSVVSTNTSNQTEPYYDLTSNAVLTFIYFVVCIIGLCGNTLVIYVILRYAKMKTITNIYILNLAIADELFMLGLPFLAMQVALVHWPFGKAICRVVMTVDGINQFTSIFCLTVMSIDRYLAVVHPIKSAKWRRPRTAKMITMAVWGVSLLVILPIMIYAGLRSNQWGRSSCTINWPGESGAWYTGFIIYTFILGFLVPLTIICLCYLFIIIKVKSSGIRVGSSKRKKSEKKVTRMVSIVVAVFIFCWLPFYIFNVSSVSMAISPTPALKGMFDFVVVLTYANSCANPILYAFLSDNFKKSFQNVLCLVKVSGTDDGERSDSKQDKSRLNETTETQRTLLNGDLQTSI
What is called IC50 is the concentration needed to halve the response being measured. The molecule B1 yielded an IC50 of 18 nM.

On to B2, for which the IC50 amounted to 13 nM.

On to B3, for which the IC50 came out at 9 nM.

Consider B4, for which the IC50 turned out to be 32 nM.

For B5, the IC50 stood at 19 nM.

As for B6, the IC50 was 48 nM.

The target in a further assay is T1, human SST-R2. Description: competition, 125I-Tyr11-SRIF-14 radioligand.
For the molecule B7, the IC50 worked out at 5.7 nM.

With B8, the IC50 came out at 13.2 nM.

In the case of B9, the IC50 amounted to 3 nM.

As to B10, the IC50 worked out at 2.9 nM.

Consider B11, for which the concentration for half-maximal inhibition (IC50) came to 1.7 nM.

B12 gave an IC50 of 5.4 nM.

B13 came in with an IC50 of 78 nM.

In the case of B14, the half-inhibitory concentration (IC50) amounted to 3.9 nM.

(Values after US20050090429 (published 2005).)
